Assay results reported in the supplement of paper PMC9876800.

Test system: peptide library, one residue held at a place counted from the S/T acceptor
Experiment: relative phosphorylation of the sub-library (ratio to the mean residue at this position); higher = residue favoured
Method in brief: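 Relative sub-library phosphorylation is a ratio to the mean residue at the same position. Purified recombinant kinases were incubated under kinase-specific conditions with biotinylated degenerate peptide sub-libraries, each fixing one residue at one position around a central Ser/Thr, using 50 μM peptide and 50 μM ATP spiked with γ-32P-ATP for 90 min. Spots captured on streptavidin membranes were phosphorimaged and quantified by densitometry.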

CILK1, construct: Full length, human, sequence (Q9UPZ9 whole entry, looked up): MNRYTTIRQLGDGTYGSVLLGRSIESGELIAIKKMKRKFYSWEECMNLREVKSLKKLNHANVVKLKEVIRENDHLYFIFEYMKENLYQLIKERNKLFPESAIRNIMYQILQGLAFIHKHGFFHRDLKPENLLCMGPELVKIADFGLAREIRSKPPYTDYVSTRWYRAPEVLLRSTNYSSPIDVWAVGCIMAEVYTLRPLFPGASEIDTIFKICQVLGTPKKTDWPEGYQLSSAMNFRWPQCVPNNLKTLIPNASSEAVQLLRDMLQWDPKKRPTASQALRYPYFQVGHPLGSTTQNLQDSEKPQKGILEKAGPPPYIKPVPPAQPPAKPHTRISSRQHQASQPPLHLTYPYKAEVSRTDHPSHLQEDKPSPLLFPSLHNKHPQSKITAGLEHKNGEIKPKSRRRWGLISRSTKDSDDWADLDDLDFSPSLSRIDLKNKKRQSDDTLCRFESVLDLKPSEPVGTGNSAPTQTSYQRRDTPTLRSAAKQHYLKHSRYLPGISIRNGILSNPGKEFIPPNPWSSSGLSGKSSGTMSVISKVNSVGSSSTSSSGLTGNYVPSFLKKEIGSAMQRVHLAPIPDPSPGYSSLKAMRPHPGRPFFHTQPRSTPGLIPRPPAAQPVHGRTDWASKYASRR
MAPK13, construct: Full length, human, sequence (O15264 whole entry, looked up): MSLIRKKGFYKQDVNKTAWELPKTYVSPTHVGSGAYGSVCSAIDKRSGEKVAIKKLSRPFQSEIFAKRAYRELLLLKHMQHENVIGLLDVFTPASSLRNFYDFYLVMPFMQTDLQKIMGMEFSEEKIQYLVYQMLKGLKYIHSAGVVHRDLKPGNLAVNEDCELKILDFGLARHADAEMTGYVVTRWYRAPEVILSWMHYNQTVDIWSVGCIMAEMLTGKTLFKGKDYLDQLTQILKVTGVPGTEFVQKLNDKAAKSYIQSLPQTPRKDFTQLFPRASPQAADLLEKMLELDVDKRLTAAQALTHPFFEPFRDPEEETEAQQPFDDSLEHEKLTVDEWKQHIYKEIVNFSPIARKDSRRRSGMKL
PRKG2, construct: Full length, human, sequence (Q13237 whole entry, looked up): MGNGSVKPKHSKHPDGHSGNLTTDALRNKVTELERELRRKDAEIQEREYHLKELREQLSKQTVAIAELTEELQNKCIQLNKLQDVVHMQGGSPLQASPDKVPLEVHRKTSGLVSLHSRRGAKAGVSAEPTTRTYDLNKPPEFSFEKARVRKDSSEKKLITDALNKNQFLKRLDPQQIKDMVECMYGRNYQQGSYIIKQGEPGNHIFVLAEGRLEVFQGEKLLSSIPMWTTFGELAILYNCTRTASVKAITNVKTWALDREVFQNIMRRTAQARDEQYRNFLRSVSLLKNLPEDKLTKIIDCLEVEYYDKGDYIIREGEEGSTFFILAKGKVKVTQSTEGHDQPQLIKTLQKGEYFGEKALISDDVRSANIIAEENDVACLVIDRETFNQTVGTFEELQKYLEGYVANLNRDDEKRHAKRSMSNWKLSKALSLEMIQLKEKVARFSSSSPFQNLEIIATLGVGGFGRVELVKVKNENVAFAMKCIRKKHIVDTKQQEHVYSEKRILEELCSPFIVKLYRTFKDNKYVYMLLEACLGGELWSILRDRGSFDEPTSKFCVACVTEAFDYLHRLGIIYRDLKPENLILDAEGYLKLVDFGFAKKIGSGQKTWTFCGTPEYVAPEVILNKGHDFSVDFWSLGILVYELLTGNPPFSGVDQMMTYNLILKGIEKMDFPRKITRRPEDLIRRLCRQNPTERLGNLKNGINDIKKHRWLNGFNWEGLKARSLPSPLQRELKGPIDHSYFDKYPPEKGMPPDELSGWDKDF
MAPKAPK3, construct: Full length, human, sequence (Q16644 whole entry, looked up): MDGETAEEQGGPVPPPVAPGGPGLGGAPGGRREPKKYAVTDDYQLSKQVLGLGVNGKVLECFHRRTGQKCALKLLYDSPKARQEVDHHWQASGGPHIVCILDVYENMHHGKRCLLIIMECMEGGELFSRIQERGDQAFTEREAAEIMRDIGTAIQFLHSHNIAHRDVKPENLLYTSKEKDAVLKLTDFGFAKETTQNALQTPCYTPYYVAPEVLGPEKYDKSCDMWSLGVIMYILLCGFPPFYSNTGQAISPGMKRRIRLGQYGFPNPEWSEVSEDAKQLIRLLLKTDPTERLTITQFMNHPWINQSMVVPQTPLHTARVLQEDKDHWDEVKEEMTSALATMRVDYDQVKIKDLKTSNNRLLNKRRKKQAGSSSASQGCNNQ

MAPKAPK3, construct: Full length, human (from UniProt Q16644)
relative phosphorylation
Details | at +1 | at +2 | at +3 | at +4 | at -1 | at -2 | at -3 | at -4 | at -5
A fixed | 0.674 | 1.05 | 1.17 | 1.02 | 0.861 | 1.42 | 0.885 | 1.11 | 0.659
D fixed | 0.406 | 1.06 | 1.47 | 1.21 | 0.649 | 0.266 | 0.193 | 0.495 | 0.203
E fixed | 0.637 | 0.868 | 1.52 | 1.02 | 0.573 | 0.386 | 0.222 | 0.764 | 0.187
F fixed | 1.04 | 0.749 | 0.722 | 0.727 | 1.05 | 0.806 | 0.438 | 0.896 | 1.97
G fixed | 0.54 | 0.872 | 1.5 | 1.26 | 0.579 | 0.968 | 0.614 | 0.88 | 0.453
H fixed | 1.26 | 1.31 | 1.05 | 1.01 | 1.23 | 0.903 | 1.34 | 1.12 | 0.689
I fixed | 1.21 | 0.813 | 0.518 | 0.711 | 0.838 | 0.462 | 0.211 | 0.795 | 1.31
K fixed | 1.07 | 0.94 | 0.807 | 1.14 | 1.3 | 0.927 | 2.05 | 1.79 | 0.646
L fixed | 1.05 | 0.794 | 0.645 | 0.823 | 1.24 | 1.04 | 0.314 | 1.12 | 1.71
M fixed | 1.31 | 0.826 | 0.675 | 0.84 | 1.21 | 1.5 | 0.487 | 1.26 | 1.2
N fixed | 1.08 | 1.26 | 1.13 | 1.16 | 1.13 | 0.857 | 0.682 | 0.76 | 0.361
P fixed | 0.229 | 1.27 | 1.82 | 1.54 | 1.22 | 0.638 | 0.883 | 0.627 | 1.15
Q fixed | 1.21 | 1.13 | 1.01 | 1.15 | 0.973 | 2.92 | 0.919 | 1.13 | 0.688
R fixed | 1.7 | 1.26 | 0.851 | 1.04 | 1.23 | 1.6 | 6.2 | 1.64 | 1.41
V fixed | 1.45 | 0.974 | 0.707 | 0.758 | 0.99 | 0.724 | 0.252 | 0.872 | 1.13
W fixed | 0.878 | 0.795 | 0.66 | 0.919 | 0.716 | 0.786 | 0.796 | 0.804 | 2.1
Y fixed | 1.24 | 1.02 | 0.745 | 0.67 | 1.21 | 0.788 | 0.521 | 0.931 | 1.15
pThr fixed | 0.99 | 0.759 | 0.687 | 1.1 | 0.449 | 0.345 | 0.244 | 0.464 | 0.333
pTyr fixed | 1.79 | 0.934 | 1.05 | 0.812 | 0.732 | 0.334 | 0.233 | 0.572 | 0.563

CILK1, construct: Full length, human (from UniProt Q9UPZ9)
relative phosphorylation
Details | at +1 | at +2 | at +3 | at +4 | at -1 | at -2 | at -3 | at -4 | at -5
A fixed | 1.36 | 0.902 | 0.838 | 1.02 | 0.938 | 0.718 | 0.93 | 1.04 | 0.881
D fixed | 0.474 | 1.08 | 0.774 | 0.815 | 0.661 | 0.491 | 0.557 | 0.803 | 1.07
E fixed | 0.464 | 0.744 | 0.722 | 0.771 | 0.577 | 0.498 | 0.498 | 0.825 | 0.875
F fixed | 0.972 | 0.992 | 0.98 | 0.809 | 0.675 | 0.559 | 0.567 | 0.922 | 0.991
G fixed | 1.22 | 1.08 | 1.23 | 1.29 | 1.22 | 0.82 | 0.734 | 1.08 | 1.03
H fixed | 0.668 | 1.27 | 1.22 | 1.25 | 1.04 | 0.615 | 0.662 | 0.982 | 1.1
I fixed | 0.907 | 0.936 | 0.834 | 0.819 | 0.497 | 0.55 | 0.556 | 0.768 | 0.802
K fixed | 0.752 | 0.968 | 1.33 | 1.09 | 1.63 | 1.09 | 1.07 | 1.21 | 1.1
L fixed | 0.818 | 0.859 | 0.957 | 0.933 | 0.755 | 0.616 | 0.556 | 0.835 | 0.953
M fixed | 0.929 | 0.967 | 0.877 | 0.926 | 1.13 | 0.652 | 0.709 | 1.03 | 0.929
N fixed | 0.601 | 1.13 | 0.883 | 1.09 | 1.15 | 0.619 | 0.651 | 0.92 | 0.917
P fixed | 3.85 | 0.907 | 1.15 | 1.22 | 1.36 | 4.79 | 1.09 | 1.19 | 1.04
Q fixed | 0.751 | 1.07 | 1.07 | 1.11 | 1.46 | 0.938 | 0.794 | 1.03 | 1
R fixed | 0.79 | 1.02 | 1.25 | 1.04 | 1.53 | 2.19 | 5.98 | 1.55 | 1.32
V fixed | 0.877 | 0.781 | 0.799 | 0.739 | 0.694 | 0.555 | 0.515 | 0.791 | 0.776
W fixed | 0.87 | 1.12 | 1.02 | 1.03 | 0.835 | 0.69 | 0.609 | 1.14 | 1.15
Y fixed | 0.702 | 1.17 | 1.08 | 1.05 | 0.845 | 0.604 | 0.522 | 0.89 | 1.06
pThr fixed | 0.722 | 0.66 | 0.828 | 1.06 | 0.459 | 0.561 | 0.625 | 0.828 | 0.807
pTyr fixed | 0.711 | 0.992 | 0.796 | 0.93 | 0.513 | 0.514 | 0.564 | 0.68 | 0.841

MAPK13, construct: Full length, human (from UniProt O15264)
relative phosphorylation
Details | at +1 | at +2 | at +3 | at +4 | at -1 | at -2 | at -3 | at -4 | at -5
A fixed | 0.304 | 0.921 | 1.42 | 1.32 | 1.31 | 1.25 | 1.26 | 1.2 | 1.3
D fixed | 0.162 | 0.572 | 1 | 1.09 | 1.11 | 0.486 | 1.09 | 1.46 | 1.26
E fixed | 0.123 | 0.497 | 1.07 | 0.846 | 0.937 | 0.434 | 1.21 | 1.39 | 1.34
F fixed | 0.148 | 0.663 | 0.413 | 1.06 | 0.768 | 0.457 | 1.04 | 0.933 | 0.923
G fixed | 0.975 | 1.31 | 1.13 | 1.39 | 0.948 | 0.896 | 1.64 | 1.16 | 1.33
H fixed | 0.143 | 0.694 | 0.936 | 0.884 | 0.927 | 0.405 | 0.773 | 0.879 | 1.05
I fixed | 0.172 | 1.27 | 0.948 | 1.02 | 0.529 | 1.52 | 0.912 | 1.02 | 0.923
K fixed | 0.148 | 0.751 | 0.57 | 0.665 | 0.681 | 0.25 | 0.522 | 0.662 | 0.855
L fixed | 0.208 | 1.27 | 1.08 | 0.988 | 1.24 | 2.47 | 0.884 | 1.05 | 0.974
M fixed | 0.182 | 1.04 | 0.659 | 1.28 | 1.77 | 1.49 | 1.14 | 1.22 | 1.16
N fixed | 0.16 | 0.438 | 0.64 | 0.849 | 0.782 | 0.512 | 0.815 | 0.983 | 1.1
P fixed | 12.9 | 1.05 | 2.58 | 0.942 | 2.31 | 3.75 | 1.08 | 0.999 | 0.962
Q fixed | 0.613 | 0.805 | 0.853 | 0.754 | 1.15 | 0.554 | 0.999 | 1.04 | 0.915
R fixed | 0.171 | 1.4 | 0.715 | 0.559 | 0.698 | 0.353 | 0.542 | 0.653 | 0.792
V fixed | 0.353 | 2.28 | 1.18 | 1.41 | 0.635 | 1.53 | 1.24 | 0.939 | 0.652
W fixed | 0.126 | 0.88 | 1.01 | 0.868 | 0.486 | 0.279 | 0.837 | 0.745 | 0.721
Y fixed | 0.14 | 1.16 | 0.791 | 1.07 | 0.711 | 0.36 | 1.02 | 0.665 | 0.735
pThr fixed | 0.158 | 1.67 | 0.939 | 0.853 | 0.309 | 0.376 | 1.14 | 1.49 | 1.7
pTyr fixed | 0.126 | 0.994 | 0.837 | 0.652 | 0.729 | 0.339 | 1.07 | 1.38 | 1.19

PRKG2, construct: Full length, human (from UniProt Q13237)
relative phosphorylation
Details | at +1 | at +2 | at +3 | at +4 | at -1 | at -2 | at -3 | at -4 | at -5
A fixed | 0.876 | 1.35 | 1.04 | 0.834 | 0.761 | 0.368 | 0.816 | 1.28 | 1.24
D fixed | 0.313 | 0.408 | 0.703 | 0.573 | 0.421 | 0.132 | 0.147 | 0.472 | 0.416
E fixed | 0.45 | 0.386 | 0.697 | 0.601 | 0.361 | 0.113 | 0.206 | 0.584 | 0.415
F fixed | 1.34 | 1.09 | 0.948 | 0.919 | 0.928 | 0.285 | 0.477 | 0.753 | 0.859
G fixed | 0.563 | 0.911 | 1.2 | 1.07 | 0.529 | 0.387 | 0.983 | 1.23 | 1.21
H fixed | 1.02 | 1.39 | 1.42 | 1.21 | 1.18 | 0.662 | 1.09 | 0.997 | 1.05
I fixed | 1.56 | 1.16 | 0.83 | 1.01 | 0.993 | 0.24 | 0.337 | 0.731 | 0.883
K fixed | 1.06 | 1.21 | 1.29 | 1.05 | 1.78 | 4.63 | 2.46 | 1.74 | 2.05
L fixed | 1.29 | 0.936 | 0.943 | 0.883 | 1.16 | 0.321 | 0.376 | 0.789 | 0.745
M fixed | 1.36 | 0.935 | 0.893 | 1.1 | 1.12 | 0.261 | 0.412 | 0.896 | 0.722
N fixed | 0.801 | 0.765 | 0.893 | 1.04 | 0.921 | 0.436 | 0.577 | 0.766 | 0.803
P fixed | 0.28 | 0.748 | 0.932 | 1.55 | 1.26 | 0.349 | 1.32 | 1.14 | 1.07
Q fixed | 1.11 | 0.962 | 0.924 | 1.04 | 0.897 | 0.465 | 0.832 | 0.968 | 0.836
R fixed | 1.41 | 1.21 | 1.49 | 1 | 1.76 | 7.58 | 5.47 | 2.24 | 2.01
V fixed | 1.9 | 1.44 | 0.927 | 0.937 | 1.07 | 0.234 | 0.399 | 0.928 | 0.905
W fixed | 0.766 | 1.01 | 0.832 | 1.29 | 0.66 | 0.283 | 0.514 | 0.762 | 0.884
Y fixed | 0.901 | 1.09 | 1.04 | 0.892 | 1.2 | 0.265 | 0.575 | 0.716 | 0.902
pThr fixed | 0.816 | 0.427 | 0.557 | 0.911 | 0.426 | 0.306 | 0.471 | 0.756 | 0.666
pTyr fixed | 0.634 | 0.543 | 0.976 | 0.751 | 0.502 | 0.277 | 0.437 | 0.502 | 0.698
